Earlier results, collected in patent US20060198900A1, “Bioactive Agent Compositions for Repair of Cell Injuries” (Nutritional Bioscience Limited, priority 2004, published 2006).

System: gastric damage
Details: Playford et al. 1995

B1: hSP: recombinant human spasmolytic polyptide (hSP) (protein, UniProt Q03403 24-129, looked up)
Trefoil factor 2: EKPSPCQCSRLSPHNRTNCGFPGITSDQCFDNGCCFDSSVTGVPWCFHPLPKQESDQCVMEVSDRRNCGYPGISPEECASRKCCFSNFIFEVPWCFFPKSVEDCHY
  reduction of gastric damage: 50%
